These results are taken from the nanobody polyreactivity screen of Harvey et al. (2022).

This series can be described thus: yeast display, Sf9 membrane polyspecificity reagent, FACS + sequencing; frameworks hold sequencing errors. In short, it runs like this: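 Using colony PCR, genes from sorted yeast display clones were amplified, then sequenced on MiSeq at 2 × 250 and filtered by CDR length. The clones had been stained with 10% biotinylated, detergent-solubilized Sf9 membrane reagent for 1 hour at 4 °C and sorted by FACS into low and high (top ~1%) gates on anti-HA and streptavidin fluorescence. Polyreactivity labels come from the gate of origin.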
Regarding “QVQLVESGGGLVQAGGSLRLSWAASGSIFYQNPMGSYRQAPGKERELVAAISSAGSTYYADSVKGRFTISRDNAKNTVYLQMNSLKPADTAVYYCAADDLGWWFYSGGEDYYYWGQATQVTVSS”, the “polyreactivity (PSR sort gate)” value is “low polyreactivity”.
As to “QVQLVESGGGLVQAGGSLRLSWAASGSISGFNAMGWYRQAPGKERELVAAISYSGGRTYYADSVKGRFTISRDNAKNNVYLHMNSLKPEDTAVFYCAADKFMYSKYTVFRDVYWGQGTQVTLSS”, the “polyreactivity (PSR sort gate)” value was “high polyreactivity”.
As to “QVQLVESGGGLVQAGGSLRLSWAASGSTFAWYAMGWYRQAPGKDRELVATISSGGSTYYADSVKGRFTISRDNAKNTVYLQMNSLKTEDTAVYYCAADYLTPWVYWFSYGLDYWGQGTQVTVSS”, the “polyreactivity (PSR sort gate)” value is recorded as “low polyreactivity”.
Take “QVQLVESGGGLVQAGGSLRLSWAASGSTFAYNDMGWYRQAPGKERELVASITSGGSTNYADSVKGRFTISRDNAKNTVYLQMNSLKPEDTAVYYCAARVRYRFDYWGQGTQVTVSS”: the “polyreactivity (PSR sort gate)” value was “low polyreactivity”.
On to “QVQLVESGGGLVQAGGSLRLSWAASGSTFNVYAMGWYRQAPGKERELVAGIRDSDGSTNYADSVKGRFTISRDNAKNTVYLQMNSLKPEDTAVYYCAADLYDINWSVWLDYWGQGTQVTVSS”, for which the “polyreactivity (PSR sort gate)” value is “low polyreactivity”.
The same measure for “QVQLVESGGGLVQAGGSLRLSWAASGSTFVVNAMGWYRQAPGKERELVAAITQDGDGTYYADSVKGRFTISRDNAKNTVYLQMNSLKPEDTAVYYCAAYPFYGPYDEFDYWGQGTEVTVSS”: “low polyreactivity”; for “QVQLVESGGGLVQAGGSLRLSWAASSIFRTYAMGWYRQAPGKERELVAAITWSGASTNYADSVKGRFTISRDNAKNTVYLQMNSLKPEDTAVYYCNADWRYYPSFKYYYWGQGTQVTVSS”: “high polyreactivity”; for “QVQLVESGGGLVQAGGSLRLSYAASGSTFRVYAMGWYRPATGKERELVAAISRSGGRTYYADSVKGRFTISRDNAKNTVYLQMNSLKPEDTAVYYCAADYKYTAVSDDYWGQGTQVTVSS”: “high polyreactivity”.
On to “QVQLVESGGGLVQAGGSLRLTCAASGFIFGYNAMGWYRQAPGKERELVAAISSSGGSTYYADSVKGRFTISRDNAKNTVSLQMNSLKPEDTAVYYCAARPVALRKYDYWGQGTQVTVSS”, for which the “polyreactivity (PSR sort gate)” value is “low polyreactivity”.
For “QVQLVESGGGLVQAGGSLRLTCAASGFIFRYYAMGWYRQAHGKEMELVAAIDYSGGSTNYADSVKGRFTISRDNSKNTVYLQMNSLKPEDTAVYYCKAEYTWHRGYDYWGLGTQVTVSS”, the “polyreactivity (PSR sort gate)” value is recorded as “low polyreactivity”.
Consider “QVQLVESGGGLVQAGGSLRLTCAASGFTFNRYTMGWYRQAPGKERELVAAITRSGGSTYYADSVKGRFTISRDNAKNTVDLQMNSLKPEDTAVYYCAAPSYLVAGYGYWGQGTQVTLSS”, for which the “polyreactivity (PSR sort gate)” value is listed as “high polyreactivity”.
The same measure for “QVQLVESGGGLVQAGGSLRLTCAASGFTFPSYPMVWYRQAPGKERELVAAITRSGVRTYYADSVKGRFTISRDNAKNTVYFQMNSLKPEDTAVYYCAAVYPRQVSQVWRDDFWGQGTQVTVSS”: “high polyreactivity”; for “QVQLVESGGGLVQAGGSLRLTCAASGFTFRYYAMGWYRQAPGKERELVASITGGGRTYYADSVKGRFTISRDNAKNTVYLQMNSLKPEDTAVYYCATLLAYRLGSGYDSWGQGTEVTVSS”: “high polyreactivity”; for “QVQLVESGGGLVQAGGSLRLTCAASGFTFSQYVMGWYRQAPGKERELVAAISYRGGSTYYADSVKGRFTISRDKAKNTVYLQLNSLKPEDTAVYYCAAVAYSWHNRYDYWGQGTQVTVSS”: “high polyreactivity”.
In the case of “QVQLVESGGGLVQAGGSLRLTCAASGFTFTGNAMGWYRQAPGKEREFVAAISWSGGSTYYADSVKGRFTISRDNAKNTVYLQMNSLKPEDTAVYYCNKYRPYGRIYHLAYGRDYWGQGTQVTVSS”, the “polyreactivity (PSR sort gate)” value is “high polyreactivity”.
As for “QVQLVESGGGLVQAGGSLRLTCAASGFTFWWYTMGWYRQATGKERELVATITSGGRTNYADSVKGRFTISRDNAKNTVYLQMNSLKPEDTAVYYCNRVAYYSRYDTDDYWGQGTQVTVSS”, the “polyreactivity (PSR sort gate)” value is “high polyreactivity”.
Take “QVQLVESGGGLVQAGGSLRLTCAASGFTIAWNAMGWYRPSPGKERELVAAISAGGGSTYYADSVKGRFTISRDNAKNTVYLQMNSLKPEDTAVYYCAARRTFKYGSYAYYYWGQGTQVTVSS”: the “polyreactivity (PSR sort gate)” value is on record as “high polyreactivity”.
As to “QVQLVESGGGLVQAGGSLRLTCAASGGIFSYNAMGWYRQAPGKERELVAAISDSSTRTYYADSVKGRFTISRDNAKNTVYLQIKSLKPEDTAVYYCAARHSRTRHTSDYWGQGTQVTVSS”, the “polyreactivity (PSR sort gate)” value is “high polyreactivity”.
On to “QVQLVESGGGLVQAGGSLRLTCAASGGIFYKYAKGWYRQAPGKEMELVAAITGRGGSTNYADSVKVRFTISRDNAKNTVYLQMNSLKPEDTAVYYCAARYTPTWSYGYWGQGTQVTVSS”, for which the “polyreactivity (PSR sort gate)” value is recorded as “low polyreactivity”.
With “QVQLVESGGGLVQAGGSLRLTCAASGIIFRVYAMGWYRQATGKERELVAAISQRGGSTYYADSVKGRFTISRDNAKNTVYLLMNSLKPEDTAVYYCAATAPAAAYRARYGYDYWGQGTQVTVSS”, the “polyreactivity (PSR sort gate)” value is listed as “high polyreactivity”.
As to “QVQLVESGGGLVQAGGSLRLTCAASGITFGGYAMGWYRQAPGKERELVATITSGGSTYYADSVKGRFTISRDNAKNTVYLQMNSLKPEDTAVYYCNAVYNYWFWGGYWHRPNARGDYWGQGTQVTVSS”, the “polyreactivity (PSR sort gate)” value is given as “high polyreactivity”.
For the sequence “QVQLVESGGGLVQAGGSLRLTCAASGITFVYNAMGWYRQAPGKERELVAAISWRGGSTYYADYVKGRFTISRDNAKNTVYLQMNSLKPEDTAVYYCNNLPTYPDYGYDSWGQGTQVTVSS”, the “polyreactivity (PSR sort gate)” value is given as “high polyreactivity”.
The same measure for “QVQLVESGGGLVQAGGSLRLTCAASGLIFGYNAMGWYRQAPGKEREFVAGISVIDGRTYYADSVKGRFTISRDNAKNTVYLQMISLKPEDTAVYYCAADRWYKYYFLTYGYWGQGTQVTVSS”: “low polyreactivity”; for “QVQLVESGGGLVQAGGSLRLTCAASGLSSLRMLWDGIDRRLGKKGSWLPLLTSGGDSTNYADSVKGRFTISRDTAKNTVYLQIISLKPEDTAVYYCAADLDYPYGYWGQGTQVTVSS”: “low polyreactivity”.
Regarding “QVQLVESGGGLVQAGGSLRLTCAASGLTFPSYSMGWYRQAPGKERELVAAIYYSGGSTYYADSVKGRFTISRDNAKITVYIHMNSLKPEDTAVYYCAADFTSFFNRIDYWGQGTQVTVSS”, the “polyreactivity (PSR sort gate)” value is recorded as “low polyreactivity”.
Consider “QVQLVESGGGLVQAGGSLRLTCAASGNIFYSYAMGWYRQAPGKERELVAAITIDGSTTYADSVKGRFTISRDNAKNTVYLQMNSLKPEDTAVYYCAKEGEAYPATYRYQFDYWGQGTQVTVSS”, for which the “polyreactivity (PSR sort gate)” value is reported as “low polyreactivity”.
For “QVQLVESGGGLVQAGGSLRLTCAASGNTFDYYAMGWYRQAPGKERELVAAITRGGSTNYADSVKGRFTISRDNAKNTVYLQMNSLKPEDTAVYYCAAEQRAPRFADYDYWGQGTQVTVSS”, the “polyreactivity (PSR sort gate)” value was “low polyreactivity”.
The same measure for “QVQLVESGGGLVQAGGSLRLTCAASGNTFVSNAMGWYRQAPGKERELVAAINSGGSTNYADSVKGRFTISRDNAKNTVYLQMNSLKPEDTAVYYCNKDYDYPQRYWMDFWGQGTQVTVSS”: “low polyreactivity”.
As for “QVQLVESGGGLVQAGGSLRLTCAASGNTFYGYAMGWYRQAPGKERELVASITLSGDSTYYADSVKGRFTISRDNAKNTVYLQMNSLKPEDTAVYYCAGVYTYPLGYFHYTYDYWGQVTQVTVSS”, the “polyreactivity (PSR sort gate)” value is “low polyreactivity”.
For the sequence “QVQLVESGGGLVQAGGSLRLTCAASGRIFGTNAMGWYRQAPGKERELVADITSGGSTNYADSVKGRFTISRDNAKNTVYLLMNSLKPEDTAVYYCAADVIGDLRWYRDEYWGQGTQVTVSS”, the “polyreactivity (PSR sort gate)” value is reported as “low polyreactivity”.
With “QVQLVESGGGLVQAGGSLRLTCAASGRIFGVYVMGWYRQAPGKERELVAAISWGGGTYYADSVKGRFTISRDNAKNNVYLQMNSLKPEDTSVYYCNAESYYTMYYWGQGTQVNVSS”, the “polyreactivity (PSR sort gate)” value was “low polyreactivity”.
The same measure for “QVQLVESGGGLVQAGGSLRLTCAASGRIFNAYAMGWYRQAPGKEREFVAAISYTVGSTYYADTVKGRFTISRDNAKITVNLQMISLKPEDTAVYYCAATGWDYYGGYDYWGQGTQVTVSS”: “high polyreactivity”; for “QVQLVESGGGLVQAGGSLRLTCAASGRIFPRNTMGWYRQAPGKERELVAAISVSGGSTYYADSVKGRFTNSRDNAKNTVYLQMNSLKPEDTAVYYWAARSARLEYYYWGQGTQVTVSS”: “high polyreactivity”; for “QVQLVESGGGLVQAGGSLRLTCAASGRIFVYNAMGWYRQAPGKESEFVATITSSGGRTYYADSVKGRFTISRDNAKNTVYLQMNSLKTEDTAVYDCAASPHNYGRNTVYRYKYWGQGTQVTVSS”: “high polyreactivity”.
The same measure for “QVQLVESGGGLVQAGGSLRLTCAASGRIFYHYAMGWYRQATGKERELVATISGAGSTHYADSVKGRFTISRDNAKNTVYLQMNSLKAEDTAVYYCNADTYLIRYWSMLEYWGQGTQVTVSS”: “low polyreactivity”; for “QVQLVESGGGLVQAGGSLRLTCAASGRILDRYVMGWYRQAPGKERELVAAISQSGRGTYYADSVKGRFTISRDNAKNTVYLQMNSLKPEVTAVYYCAARGTGYHGYGYWGQGSQVTVSS”: “high polyreactivity”; for “QVQLVESGGGLVQAGGSLRLTCAASGRIYTYNAMGRYRKAPGKERELVATITWRGGGTYYADSVKGRFTISRDNAKNTVYLQMNSLKPEDTAVYYCIRRLPGDGQYGYRRFDYWGQGTQVTVSS”: “low polyreactivity”.
For “QVQLVESGGGLVQAGGSLRLTCAASGRTFARNAMGWYRQAPGKERELVAAITRSGGSTYYADSVKGRFTISRDNAKNTVYLQMNSLKPEDTAVYYCAADVRTYRGYYWKAFDYWGQGTQVTVSS”, the “polyreactivity (PSR sort gate)” value is listed as “high polyreactivity”.
The same measure for “QVQLVESGGGLVQAGGSLRLTCAASGRTFFYNAMGWYRPAPGKERELVAAISWSGGRTYYADSVKGRFTISRDNAKNTVYLQMNSLKPEDTAVYYCASTGFYSSHYHLDYWGQGTQLTVSS”: “high polyreactivity”; for “QVQLVESGGGLVQAGGSLRLTCAASGRTFGTYAMGWSRQAPGKERELVAVITNGGGTYYADSVKGRFTISRDNAKNTVYLQMNSLKPEDTAVYYCNTDRYGLRRWVYSYWGGYDYWGQGTQVTVSS”: “low polyreactivity”.
